Measurements taken from patent US20100081170A1.

How the values were obtained:
[1] = target: native human CD20 on isolated normal human B cells (human) (UniProt P11836); experiment: Scatchard analysis, unlabeled against 125I-IgG on human B cells, Donor 3
Reduced, Reoxidized = experiment: ELISA, reduced and re-oxidized CD20 coated on the plate, rituximab titrated, detection with HRP goat anti-human F(ab')2, absorbance 450 nm
[2] = target: His-tagged human CD20 expressed in E. coli (human) (UniProt P11836); experiment: SPR (BIAcore-3000), rituximab IgG immobilised on CM5, CD20 in 0.1% DDM as analyte, 1:1 model
[3] = target: native human CD20 on isolated normal human B cells (human) (UniProt P11836); experiment: Scatchard analysis, unlabeled against 125I-IgG on human B cells, Donor 2
[4] = target: native human CD20 on isolated normal human B cells (human) (UniProt P11836); experiment: Scatchard analysis, unlabeled against 125I-IgG on human B cells, Donor 1
[5] = target: human CD20 expressed with the LE leader (LE.CD20), leader and His-tag removed with thrombin (human) (UniProt P11836); experiment: ELISA, CD20 coated on the plate, rituximab titrated, detection with HRP goat anti-human F(ab')2, absorbance 450 nm
[6] = target: human CD20 expressed with the sLE leader (sLE.CD20), leader removed with thrombin (human) (UniProt P11836); experiment: as above
[7] = target: His-tagged human CD20 expressed in E. coli (human) (UniProt P11836); experiment: as above
[8] = target: His-tagged human CD20 expressed in E. coli (human) (UniProt P11836); experiment: SPR (BIAcore-3000), rituximab Fab immobilised on CM5, CD20 in 0.1% DDM as analyte, 1:1 model
[9] = target: C2S mutant of human CD20 (Cys111Ser, Cys220Ser), His-tagged (human) (UniProt P11836); experiment: SPR (BIAcore-3000), rituximab Fab immobilised on CM5, C2S-CD20 in 0.1% DDM as analyte, 1:1 model
[10] = target: C2S mutant of human CD20 (Cys111Ser, Cys220Ser), His-tagged (human) (UniProt P11836); experiment: SPR (BIAcore-3000), rituximab Fab immobilised on CM5, affinity purified C2S-CD20 as analyte, 1:1 model
[11] = target: native human CD20 on isolated normal human B cells (human) (UniProt P11836); experiment: Scatchard analysis, unlabeled against 125I-Fab on human B cells, Donor 5
[12] = target: native human CD20 on isolated normal human B cells (human) (UniProt P11836); experiment: Scatchard analysis, unlabeled against 125I-Fab on human B cells, Donor 4

Sequence of Reduced, Reoxidized (CD20 polypeptide, as listed by the source): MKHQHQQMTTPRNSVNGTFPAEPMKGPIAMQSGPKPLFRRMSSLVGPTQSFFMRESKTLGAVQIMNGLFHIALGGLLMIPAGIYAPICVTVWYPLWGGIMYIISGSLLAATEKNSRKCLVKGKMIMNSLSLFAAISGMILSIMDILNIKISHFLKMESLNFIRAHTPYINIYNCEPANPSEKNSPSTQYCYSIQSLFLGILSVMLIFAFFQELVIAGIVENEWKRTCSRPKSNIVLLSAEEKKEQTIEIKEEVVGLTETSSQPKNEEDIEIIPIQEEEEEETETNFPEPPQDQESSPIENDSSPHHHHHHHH

Kd [1] [µM]	EC50 (read off the curve) (Reduced, Reoxidized) [µM]	Ka [2] [M⁻¹]	Kd [3] [µM]	Kd [4] [µM]	EC50 (read off the curve) [5] [µM]	EC50 (read off the curve) [6] [µM]	EC50 (read off the curve) [7] [µM]	Ka [8] [M⁻¹]	Kd [8] [µM]	Ka [9] [M⁻¹]	Kd [9] [µM]	Ka [10] [M⁻¹]	Kd [10] [µM]	Kd [11] [µM]	Kd [12] [µM]	Substance
0.00127	0.05	6.6e+06	0.00072	0.00032	0.0005	0.0004	0.0005	–	–	–	–	–	–	–	–	rituximab full length antibody
–	–	–	–	–	–	–	–	3.5e+06	0.28	4.4e+06	0.23	5.4e+06	0.19	0.063	0.052	rituximab Fab
